From PMC4169579 (2014)
Positions of bridges follow the written chain, without caps; N, C: chain ends. No end group written: not given here.

Target: Prostate-specific antigen (PSA or kallikrein-related peptidase-3, KLK3), major form of active PSA (isoform … (human, UniProt P07288 25-261))
Test: SPR

Chain of Prostate-specific antigen (PSA or kallikrein-related peptidase-3, KLK3), major form of active PSA (isoform … (P07288 25-261): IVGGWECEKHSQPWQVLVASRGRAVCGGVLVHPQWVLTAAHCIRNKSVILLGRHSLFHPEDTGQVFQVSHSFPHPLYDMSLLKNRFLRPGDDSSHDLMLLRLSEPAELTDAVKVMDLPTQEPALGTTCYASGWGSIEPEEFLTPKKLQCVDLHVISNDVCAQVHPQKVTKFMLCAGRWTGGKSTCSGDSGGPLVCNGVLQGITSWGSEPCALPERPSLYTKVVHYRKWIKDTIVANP

- Kd: 56.1 µM
B1: 12-amino acid cyclic peptide B2 (without C-terminal amidation) (peptide)
peptide: CVFAHNYDYLVC-OH
modifications: disulfide 1-12; N-terminus assumed
SMILES: CC(C)C[C@@H]1NC(=O)[C@H](Cc2ccc(O)cc2)NC(=O)[C@H](CC(=O)O)NC(=O)[C@H](Cc2ccc(O)cc2)NC(=O)[C@H](CC(N)=O)NC(=O)[C@H](Cc2c[nH]cn2)NC(=O)[C@H](C)NC(=O)[C@H](Cc2ccccc2)NC(=O)[C@H](C(C)C)NC(=O)[C@@H](N)CSSC[C@@H](C(=O)O)NC(=O)[C@H](C(C)C)NC1=O
